Measurements taken from patent US20160152721A1 (Novartis, published 2016).
Values joined by “and” are separate entries in the source; they are usually repeats but may differ in a detail not shown here. Equal values may be shown once.

Columns and labels:
[1] = molecular target: T1, human CD40 on cells (BJAB B cell line, human PBMCs, CD20+ B cells, tonsil B cells, monocyte-derived dendritic … (human, UniProt P25942 21-277)); experiment: cell-based or functional assay
[2] = molecular target: T1, human CD40 on cells (BJAB B cell line, …); experiment: cell-based or functional assay; remark: listed apart in the source
[3] = molecular target: T1, human CD40 on cells (BJAB B cell line, …); experiment: flow cytometry on BJAB cells, normalized median fluorescence [left panel (Experiment 68_09]
Experimental: (§1) Flow cytometry was used, in order to compare the binding of the different anti-CD40 antibody Fc variants in their binding to human BJAB cells. Therefore, 2×10⁵ cells were seeded per well in a 96-well V-bottom plate. The plates were washed twice with 200 μL of FACS buffer (PBS, 5% FCS, 2 mM EDTA) for 2 min at 4° C. at 1350×g. Supernatants were discarded and cells were resuspended in […] FACS buffer containing 8% human serum (InVitromex, Cat. No. S4190) and incubated for 10 min. After two washes anti-human CD40 Fc variants were added in 50 μL FACS buffer with 1% human serum starting at a concentration of 10 μg/mL in a 1:2 dilution. Cells were incubated for 30 min on ice followed by two washing steps. 50 μL of polyclonal rabbit anti-human IgG FITC, F(ab′)2 (DAKO, Cat. No. F 0315) were added to each well and incubated for 30 min on ice. At the end of the incubation cells were washed twice, resuspended in 100 μL FACS buffer and acquired on a FACS Cantoll.
(§2) After acquisition the mean fluorescence intensity of the FITC channel was acquired in FloJo.Graphing and curve fitting was performed with GraphPad Prism 5.0. Due to changing intensities between individual experiments, values were normalized. Therefore, the highest value of each antibody test series was equaled 100%. Non-linear curve fittings were performed with the percent values.
(§3) To compare the curves of the different experiments, the highest median fluorescence intensity of each individual dose-titration was set to 100% binding and a non-linear curve fitting was applied. […] No changes in the binding capabilities of the variants could be observed with the different mutations of the Fc binding region of Chir12.12.

[4] = molecular target: T1, human CD40 on cells (BJAB B cell line, …); experiment: flow cytometry on BJAB cells, normalized median fluorescence [right panel (Experiment 72_09]
Experimental: as §1, §2, §3

[5] = molecular target: T1, human CD40 on cells (BJAB B cell line, …); experiment: cell-based or functional assay; remark: listed apart in the source
[6] = molecular target: human CD40 (Biacore antigen) (human, UniProt P25942 21-193, limits assumed); experiment: Biacore (SPR); format not described
[7] = molecular target: T2, Cynomolgus CD40 on CD20+ B cells / PBMCs (Cynomolgus, UniProt G7PG38 21-278); experiment: cell-based or functional assay
[8] = molecular target: T3, Rhesus CD40 on CD20+ B cells / PBMCs (Rhesus, UniProt F6SNI1 21-278); experiment: cell-based or functional assay
[9] = molecular target: T1, human CD40 on cells (BJAB B cell line, …); experiment: cell-based or functional assay; remark: listed apart in the source
[10] = molecular target: T3, Rhesus CD40 on CD20+ B cells / PBMCs; experiment: cell-based or functional assay; remark: listed apart in the source
[11] = molecular target: T1, human CD40 on cells (BJAB B cell line, …); experiment: cell-based or functional assay; remark: listed apart in the source
[12] = molecular target: T1, human CD40 on cells (BJAB B cell line, …); experiment: flow cytometry on human CD20+ B cells
Experimental: (§4) PBMCs (rhesus, cynomolgus or human) or tonsil B cells (human only) were incubated at 4° C. for 30 min with purified labeled mAb1 or isotype control antibodies in dose response (final concentration range 2.5 μg/ml-0.00125 μg/ml). Cells were subsequently washed prior to being incubated with an anti-human (non-human primate cross-reactive) and a biotinylated anti-human IgG antibody with minimal cross-reactivity to NHPs (R10; note that it was possible to distinguish membrane IgG expressing human B cells either by including an anti-IgM stain or via differential intensity of FACS staining). Cells were again incubated at 4° C. for 30 min prior to being washed and subject to final staining with streptavidin-FITC for 20 min at 4° C. Cells were subsequently washed and evaluation of CD40 expression on CD20+ cells was performed by flow cytometry.

[13] = molecular target: T2, Cynomolgus CD40 on CD20+ B cells / PBMCs; experiment: flow cytometry on Cynomolgus CD20+ B cells
Experimental: as §4

[14] = molecular target: T3, Rhesus CD40 on CD20+ B cells / PBMCs; experiment: flow cytometry on Rhesus CD20+ B cells (n = 6)
Experimental: as §4

T3 sequence (F6SNI1 entry or part of it limits assumed): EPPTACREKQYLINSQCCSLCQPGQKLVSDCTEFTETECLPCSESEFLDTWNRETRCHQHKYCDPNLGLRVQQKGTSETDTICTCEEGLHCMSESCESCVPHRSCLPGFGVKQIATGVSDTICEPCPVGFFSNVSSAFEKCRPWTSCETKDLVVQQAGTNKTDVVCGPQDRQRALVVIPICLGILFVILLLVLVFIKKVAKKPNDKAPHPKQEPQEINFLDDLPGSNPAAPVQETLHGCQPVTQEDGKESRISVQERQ
T1 sequence (P25942 21-277 limits assumed): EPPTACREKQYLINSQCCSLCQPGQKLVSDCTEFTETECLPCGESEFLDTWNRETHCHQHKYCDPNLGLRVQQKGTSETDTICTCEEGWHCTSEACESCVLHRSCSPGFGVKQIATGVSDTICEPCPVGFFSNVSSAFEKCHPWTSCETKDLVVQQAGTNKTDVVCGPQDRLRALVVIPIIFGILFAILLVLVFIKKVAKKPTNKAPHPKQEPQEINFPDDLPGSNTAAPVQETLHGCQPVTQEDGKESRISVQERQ
human CD40 (Biacore antigen), sequence (P25942 21-193 limits assumed): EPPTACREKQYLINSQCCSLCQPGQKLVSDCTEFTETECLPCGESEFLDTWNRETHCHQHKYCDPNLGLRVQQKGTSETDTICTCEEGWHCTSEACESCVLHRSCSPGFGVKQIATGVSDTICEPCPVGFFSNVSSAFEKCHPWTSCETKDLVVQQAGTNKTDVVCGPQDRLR
T2 sequence (G7PG38 entry or part of it limits assumed): as the sequence (F6SNI1 entry or part of it limits assumed) above, with R70Q, M92T, A207V, L220P counted along it

Row | Binder | IC50 for the inhibition of TNF alpha release from human MoDCs stimulated with MegaCD40L, average [1] | IC50 for the inhibition of TNF alpha release from human MoDCs stimulated with MegaCD40L, experiment #2 [1] | IC50 for the inhibition of TNF alpha release from human MoDCs stimulated with MegaCD40L, experiment #3 [1] | Agonist activity on huPBMCs (EC50, ng/ml) [2] | CD40L inhibition - huPBMCs (IC50, ng/ml) [2] | EC50 (read off the curve) [3] | EC50 (read off the curve) [4] | IC50 for inhibition of CD40L-mediated proliferation of PBMCs [5] | Kd [6] | CD154 inhibition (IC50, µg/ml), CD154+IL-4 induced proliferation of Cynomolgus PBMCs [7] | CD154 inhibition (IC50, µg/ml), CD154+IL-4 induced proliferation of Rhesus PBMCs (n = 6) [8] | CD154 inhibition (IC50, µg/ml), CD154+IL-4 induced proliferation of human tonsil B cells [9] | IC50 for the inhibition of TNF alpha release from human MoDCs stimulated with MegaCD40L, experiment #1 [1] | IC50 in the functional inhibition test (soluble CD154 + IL4-induced proliferation, rhesus PBMCs) [10] | IC50 in the functional inhibition test (soluble CD154 + IL4-induced proliferation, human tonsil B cells) [11] | EC50 [12] | EC50 [13] | EC50 [14]
1 | Chir12.12 (antibody, human IgG1, kappa, also called Chir12.12 (wt Fc); parental anti-CD40 antibody) heavy: not shown light: DIVMTQSPLSLTVTPGEPASISCRSSQSLLYSNGYNYLDWYLQKPGQSPQVLISLGSNRASGVPDRFSGSGSGTDFTLKISRVEAEDVGVYYCMQARQTPFTFGPGTKVDIRRTVAAPSVFIFPPSDEQLKSGTASVVCLLNNFYPREAKVQWKVDNALQSGNSQESVTEQDSKDSTYSLSSTLTLSKADYEKHKVYACEVTHQGLSSPVTKSFNRGEC | 0.036 µg/mL | 0.041 µg/mL | 0.03 µg/mL | > 10000 ng/mL | 13 ng/mL | ~0.1 µg/mL | ~0.3 µg/mL | 0.176 µg/mL | 0.55 nM |  |  |  |  |  |  |  |  | 
2 | mAb1 (antibody, human IgG1, kappa, N297A, Fc-silent IgG1 variant of Chir12.12 with N297A (aglycosylated); same VH/VL as Chir12.12; also called mAb1 (N297A)) heavy: not shown light: DIVMTQSPLSLTVTPGEPASISCRSSQSLLYSNGYNYLDWYLQKPGQSPQVLISLGSNRASGVPDRFSGSGSGTDFTLKISRVEAEDVGVYYCMQARQTPFTFGPGTKVDIRRTVAAPSVFIFPPSDEQLKSGTASVVCLLNNFYPREAKVQWKVDNALQSGNSQESVTEQDSKDSTYSLSSTLTLSKADYEKHKVYACEVTHQGLSSPVTKSFNRGEC | 0.04 µg/mL | 0.044 µg/mL | 0.058 µg/mL | > 10000 ng/mL | 15 ng/mL | ~0.3 µg/mL | ~0.5 µg/mL | 0.058 µg/mL | 0.69 nM | 0.015 µg/mL and 0.02 µg/mL | 0.03 µg/mL | 0.058 µg/mL and 0.075 µg/mL | 0.023 µg/mL | 0.0255 µg/mL | 0.067 µg/mL | 0.26 µg/mL and 0.28 µg/mL | 0.3 µg/mL and 0.24 µg/mL | 0.22 µg/mL

Further lines, results first:

Row | IC50 for the inhibition of TNF alpha release from human MoDCs stimulated with MegaCD40L, average [1] | IC50 for the inhibition of TNF alpha release from human MoDCs stimulated with MegaCD40L, experiment #2 [1] | IC50 for the inhibition of TNF alpha release from human MoDCs stimulated with MegaCD40L, experiment #3 [1] | Agonist activity on huPBMCs (EC50, ng/ml) [2] | CD40L inhibition - huPBMCs (IC50, ng/ml) [2] | EC50 (read off the curve) [3] | EC50 (read off the curve) [4] | IC50 for inhibition of CD40L-mediated proliferation of PBMCs [5] | Kd [6] | CD154 inhibition (IC50, µg/ml), CD154+IL-4 induced proliferation of Cynomolgus PBMCs [7] | CD154 inhibition (IC50, µg/ml), CD154+IL-4 induced proliferation of Rhesus PBMCs (n = 6) [8] | CD154 inhibition (IC50, µg/ml), CD154+IL-4 induced proliferation of human tonsil B cells [9] | IC50 for the inhibition of TNF alpha release from human MoDCs stimulated with MegaCD40L, experiment #1 [1] | IC50 in the functional inhibition test (soluble CD154 + IL4-induced proliferation, rhesus PBMCs) [10] | IC50 in the functional inhibition test (soluble CD154 + IL4-induced proliferation, human tonsil B cells) [11] | EC50 [12] | EC50 [13] | EC50 [14] | Binder
3 | 0.032 µg/mL | 0.008 µg/mL | 0.047 µg/mL | > 10000 ng/mL | 15 ng/mL | ~0.1 µg/mL | ~0.2 µg/mL | 0.118 µg/mL | 0.33 nM |  |  |  | 0.039 µg/mL |  |  |  |  |  | mAb3 (antibody, human IgG1, kappa, L234A L235A, IgG1 variant of Chir12.12 with L234A/L235A; same VH/VL as Chir12.12; also called mAb3 (LALA); LALA mutant) heavy: not shown light: DIVMTQSPLSLTVTPGEPASISCRSSQSLLYSNGYNYLDWYLQKPGQSPQVLISLGSNRASGVPDRFSGSGSGTDFTLKISRVEAEDVGVYYCMQARQTPFTFGPGTKVDIRRTVAAPSVFIFPPSDEQLKSGTASVVCLLNNFYPREAKVQWKVDNALQSGNSQESVTEQDSKDSTYSLSSTLTLSKADYEKHKVYACEVTHQGLSSPVTKSFNRGEC
4 | 0.033 µg/mL | 0.012 µg/mL | 0.042 µg/mL | > 10000 ng/mL | 17 ng/mL |  |  | 0.146 µg/mL | 0.49 nM |  |  |  | 0.041 µg/mL |  |  |  |  |  | mAb2 (antibody, human IgG1, kappa, Fc-silent IgG1 variant of Chir12.12 with D265A; same VH/VL as Chir12.12; also called mAb2 (D265A)) heavy: not shown light: DIVMTQSPLSLTVTPGEPASISCRSSQSLLYSNGYNYLDWYLQKPGQSPQVLISLGSNRASGVPDRFSGSGSGTDFTLKISRVEAEDVGVYYCMQARQTPFTFGPGTKVDIRRTVAAPSVFIFPPSDEQLKSGTASVVCLLNNFYPREAKVQWKVDNALQSGNSQESVTEQDSKDSTYSLSSTLTLSKADYEKHKVYACEVTHQGLSSPVTKSFNRGEC
